The target in the assay is N-type (CaV2.2) Ca2+ channel (α1B with β2a and α2δ) in HEK293 cells (human; rat), Q00975. In words: cell-based or functional assay.

One molecule from US20080279864A1 can be followed below.

N-type (CaV2.2) Ca2+ channel (α1B with β2a and α2δ) in HEK293 cells (human; rat), Q00975, sequence (P54290 25-1091, stated change not applied, chain 3 of 2, other chains not shown): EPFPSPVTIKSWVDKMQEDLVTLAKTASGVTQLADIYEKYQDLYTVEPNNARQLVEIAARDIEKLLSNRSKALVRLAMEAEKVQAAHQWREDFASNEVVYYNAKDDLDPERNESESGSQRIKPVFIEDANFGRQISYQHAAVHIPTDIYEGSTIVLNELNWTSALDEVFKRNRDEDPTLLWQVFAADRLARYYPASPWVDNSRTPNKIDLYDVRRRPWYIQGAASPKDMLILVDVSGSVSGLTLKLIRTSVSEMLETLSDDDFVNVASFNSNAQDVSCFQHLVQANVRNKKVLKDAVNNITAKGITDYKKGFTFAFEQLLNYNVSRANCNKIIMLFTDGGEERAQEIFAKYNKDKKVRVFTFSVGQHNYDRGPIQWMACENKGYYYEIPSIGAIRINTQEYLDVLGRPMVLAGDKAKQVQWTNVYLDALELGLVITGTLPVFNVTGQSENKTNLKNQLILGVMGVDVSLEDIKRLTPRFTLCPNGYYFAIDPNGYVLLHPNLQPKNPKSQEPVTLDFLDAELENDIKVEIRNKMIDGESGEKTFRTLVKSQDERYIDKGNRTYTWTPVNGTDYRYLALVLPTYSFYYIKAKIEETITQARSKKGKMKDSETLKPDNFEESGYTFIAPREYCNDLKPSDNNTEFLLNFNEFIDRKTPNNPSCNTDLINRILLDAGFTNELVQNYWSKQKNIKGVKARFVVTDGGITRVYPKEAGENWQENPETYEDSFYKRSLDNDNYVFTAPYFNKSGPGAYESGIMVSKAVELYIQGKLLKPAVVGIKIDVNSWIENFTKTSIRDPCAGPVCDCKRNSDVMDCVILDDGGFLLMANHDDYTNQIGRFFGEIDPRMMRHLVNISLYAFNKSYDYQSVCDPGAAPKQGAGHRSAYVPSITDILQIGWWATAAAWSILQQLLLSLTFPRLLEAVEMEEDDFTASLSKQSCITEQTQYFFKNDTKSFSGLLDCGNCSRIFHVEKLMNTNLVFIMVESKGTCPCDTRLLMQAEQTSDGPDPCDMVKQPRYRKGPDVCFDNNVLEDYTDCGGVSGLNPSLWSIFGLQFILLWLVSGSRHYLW

B1: free NTB peptide (residues 1-95, without CFP fusion) (peptide)
peptide: MVRFGDELGGRYGGPGGGERARGGGAGGAGGPGPGGLQPGQRVLYKQSIAQRARTMALYNPIPVKQNCFTVNRSLFVFSEDNVVRKYAKRITEWP
B1 yielded a DF, degree of prepulse facilitation, free NTB with Gβγ of 4 and a conversion to constitutively reluctant channels, free NTB with Gβγ of 75%.
